This note sets out measurements from article PMC11609450, “Structure function analysis of ADP-dependent cyanobacterial phosphofructokinase reveals new phylogenetic grouping in the PFK-A family” (The Journal of Biological Chemistry, 2024).

The stoichiometry N is the number of molecules, sites or subunits per partner or assembly. The term kcat denotes the maximal rate divided by the concentration of active sites.

For one series, the target named is T1, PFK-A2 (Sll0745) (Synechocystis sp. PCC 6803, UniProt Q55988).
T1 construct: gene pfkA2
The series is described as follows: coupled NADH assay (aldolase/TPI/GPDH), […] nm; global MWC fit. Type of series: biochemical.

The target of series [1] is T2, PFK-A1 (Sll1196) (Synechocystis sp. PCC 6803, UniProt P72830).
T2 construct: gene pfkA1
The series is described as follows: coupled NADH assay, effector test. The class given is biochemical. Particulars: read-out: % residual activity at 1 mM.

Series [2] has as its target T3, PFK-A1 from Crocosphaera subtropica (Crocosphaera subtropica, UniProt B1WQ98).
T3 construct: gene pfkA1; codon-optimized gene in pET15b, His tag, E. coli Rosetta (DE3), IMAC
T3 sequence (B1WQ98 1-360): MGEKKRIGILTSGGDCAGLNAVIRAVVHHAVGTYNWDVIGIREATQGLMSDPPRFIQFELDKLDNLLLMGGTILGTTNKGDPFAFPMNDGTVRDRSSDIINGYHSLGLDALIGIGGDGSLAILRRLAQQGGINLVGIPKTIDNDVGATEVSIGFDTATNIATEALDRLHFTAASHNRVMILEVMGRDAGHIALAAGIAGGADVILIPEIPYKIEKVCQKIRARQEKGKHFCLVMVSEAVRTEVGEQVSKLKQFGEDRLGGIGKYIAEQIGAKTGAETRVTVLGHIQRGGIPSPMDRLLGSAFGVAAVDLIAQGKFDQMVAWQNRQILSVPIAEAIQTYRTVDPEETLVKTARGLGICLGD
Nature of the series: coupled NADH assay, phosphate donor specificity. Type of series: biochemical. Particulars: 1 mM F6P, 2 mM ADP, 10 mM MgCl2, pH 7.7, 30 °C.

The target in series [3] is T4, PFK-A2 from M. aeruginosa PCC 9808 (Microcystis aeruginosa, UniProt I4HJC6).
T4 construct: gene pfkA; codon-optimized gene in pET15b, His tag, E. coli Rosetta (DE3), IMAC
T4 sequence (I4HJC6 1-402): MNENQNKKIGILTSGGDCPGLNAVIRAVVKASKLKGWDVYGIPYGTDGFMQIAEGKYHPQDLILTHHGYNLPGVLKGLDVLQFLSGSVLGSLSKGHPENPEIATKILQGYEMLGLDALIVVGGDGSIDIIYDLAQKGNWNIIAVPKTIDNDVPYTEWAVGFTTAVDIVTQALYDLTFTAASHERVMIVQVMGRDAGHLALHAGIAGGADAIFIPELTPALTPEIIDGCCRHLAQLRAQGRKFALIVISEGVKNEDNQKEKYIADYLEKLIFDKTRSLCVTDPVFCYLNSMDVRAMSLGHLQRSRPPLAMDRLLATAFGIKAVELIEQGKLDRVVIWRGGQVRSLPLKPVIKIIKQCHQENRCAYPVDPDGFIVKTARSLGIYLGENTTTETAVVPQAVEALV
The series is described as follows: coupled NADH assay, phosphate donor specificity. The class given is biochemical. Particulars: 1 mM F6P, 2 mM ADP, 10 mM MgCl2, pH 7.7, 30 °C.

Series [4] concerns the target T5, PFK-A1 from A. brasilense (Azospirillum brasilense, UniProt A0A560AK87).
T5 construct: gene pfkA; codon-optimized gene in pET15b, His tag, E. coli Rosetta (DE3), IMAC
T5 sequence (A0A560AK87 1-361): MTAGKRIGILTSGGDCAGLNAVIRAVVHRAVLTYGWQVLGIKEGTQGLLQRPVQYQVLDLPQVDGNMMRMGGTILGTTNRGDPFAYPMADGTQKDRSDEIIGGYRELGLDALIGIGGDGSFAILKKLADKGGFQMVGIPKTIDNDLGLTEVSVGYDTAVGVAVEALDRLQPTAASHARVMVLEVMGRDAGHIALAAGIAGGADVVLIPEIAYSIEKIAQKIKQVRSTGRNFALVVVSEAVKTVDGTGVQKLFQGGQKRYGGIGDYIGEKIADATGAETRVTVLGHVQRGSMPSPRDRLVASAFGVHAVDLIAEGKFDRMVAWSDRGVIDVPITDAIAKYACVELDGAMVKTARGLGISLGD
The series is described as follows: coupled NADH assay, phosphate donor specificity. The class given is biochemical. Particulars: 1 mM F6P, 2 mM ADP, 10 mM MgCl2, pH 7.7, 30 °C.

In series [5] the target is T2, PFK-A1 (Sll1196). Nature of the series: coupled NADH assay (aldolase/TPI/GPDH), […] nm; global MWC fit. Type of series: biochemical. Particulars: read-out: PFK-A11.
Series [6] deals with the molecule itself. The series is described as follows: SEC; HiLoad 16/600 Superdex 200 prep grade, 50 mM HEPES/NaOH pH 7.5 (RT), 300 mM NaCl, 3 mM dithiothreitol, 1 ml/min; calibrated with five standard proteins; PFK-A1 applied at 5 mg/ml (62.5 uM), PFK-A2 at 7 mg/ml (87.5 uM); self-association. Background: In gel filtration, larger molecules generally elute earlier.
Series [7] concerns the molecule itself. Nature of the series: native MS; nanoESI, Exactive Plus EMR Orbitrap, positive EMR mode; protein rebuffered to 200 mM or 1 M ammonium acetate pH 6.8, 5 uM stock; PFK-A1 also with F6P; self-association.
Substrate in the series “purified protein”: Nc1ncnc2c1ncn2[C@@H]1O[C@H](COP(=O)(O)OP(=O)(O)O)[C@@H](O)[C@H]1O
Nature of the series: purified protein. Type of series: biochemical, Synechocystis sp. PCC 6803. Particulars: MWC R-state constant, co-substrate F6P.

At PFK-A2 (Sll0745), `Nc1ncnc2c1ncn2[C@@H]1O[C@H](COP(=O)(O)OP(=O)(O)OP(=O)(O)O)[C@@H](O)[C@H]1O` [ATP] came in with a Ki of 200 µM. Also, the remaining activity at 1000 µM on PFK-A1 (Sll1196) [1] was 96%.

As for `C=C(OP(=O)(O)O)C(=O)O` [PEP], the remaining activity at 1000 µM at PFK-A1 (Sll1196) [1] is 86%.

With `Nc1ncnc2c1ncn2[C@@H]1O[C@H](COP(=O)(O)OP(=O)(O)O)[C@@H](O)[C@H]1O` [ADP], the “coupled NADH assay, phosphate donor specificity” value is “all three tested enzymes were specific for ADP and showed no activity with ATP” in series [2]; “all three tested enzymes were specific for ADP and showed no activity with ATP” in [3]; “all three tested enzymes were specific for ADP and showed no activity with ATP” in series [4].

Turning to `O=C(O)[C@H](O)COP(=O)(O)O` [3PG], the Ki at PFK-A1 (Sll1196) [5] worked out at 110 µM.

B1: Synechocystis sp. PCC 6803 ADP-dependent phosphofructokinase PFK-A2 (Sll0745) (enzyme, UniProt Q55988 1-384, looked up)
chain: MGTKRIGILTSGGDCPGLNAVIRAVVKASALKGWEVYGIPYGTDGFVEVAHGKYQAEDLLLTKHGYALPGMLKGLDVLQFLSGSVLGSLSKGHPEQPAIAEAILKGYAILDLEALIVIGGDGSLDIIYDLAQKGNWHIIAIPKTIDNDVPFTDLAVGFSTAVDIVTQALYDLTFTAASHERIIIVQVMGRDAGHLTLHAGIAGGADIILIPEITPCLTSEIIRNCCYQLMNLRKSGRHFALIVISEGVHDQNNKKNKHIADYLAEEISETSQHLCDIKDPAFCDLISLDIRATTLGHLQRSGTPLSFDRLLATVFGIRAVELIEQEIYDQVVIWRSGKVEHADLKPIISIIKECHQENRCPFPVDRDGFMVKTAKSLGIYLGED
notes: Phosphofructokinase isoenzyme PFK-A2 (sll0745) of Synechocystis sp; PCC 6803, amplified from genomic DNA with primers from the start codon (NdeI) to the stop codon (BamHI); calculated mass 43.64 kDa; Mainly dimer by SEC and native MS, with a lesser tetramer by native MS, so copies is left empty; No tag cleavage is described; also called ADP-PFK-A2; source: E. coli Rosetta (DE3), pET15b, purified …
Turning to B1, in series [6], the “stoichiometry N” value turned out to be 2. For the same molecule, in [7], the “stoichiometry N” value turned out to be 4. For the same molecule, in “purified protein” (5 mM MgCl2, pH 7.7, 30 °C), the Km is 0.17 (±0.03) mM and the kcat was 12.3 s⁻¹.

B2: Synechocystis sp. PCC 6803 ADP-dependent phosphofructokinase PFK-A1 (Sll1196) (enzyme, UniProt P72830 1-361, looked up)
chain: MGEIKRIGILTSGGDCAGLNAVIRSVVHHAIGTYGWEVIGIQEATQGLMENPSKAIALHRDNIDHLLMMGGTFLGTTNKGNPFAFPMADGTVRDRTEDIIAGYRQLGLDALIGIGGDGSLAILRRIAQQGGINLVGIPKTIDNDVGATEISIGFDTATNIATEALDRLHFTAASHNRVMVLEVMGRDAGHIALAAGIGGGADIILIPEIPYRIQSVCNKIRQRQAEGKNFCLVMVSEAVRTELGDQVKQIQQFGEDRYGGIGKYIAEQIAQRTGAETRVTVLGHIQRGGIPSPFDRLLGSVFGVAAVDLIAEGKFDHMVAWRNRQTISVPIEEAIQTYQTVQLDGTLVKTARGLGICLGND
notes: Phosphofructokinase isoenzyme PFK-A1 (sll1196) of Synechocystis sp; PCC 6803, amplified from genomic DNA with primers from the start codon (NdeI) to the stop codon (BamHI); calculated mass 40.47 kDa; Oligomeric state differs by method (dimer by SEC, mainly tetramer by native MS), so copies is left empty; No tag cleavage is described; also called ADP-PFK-A1; source: E. coli Rosetta (DE3), pET15b, …
With B2, the “stoichiometry N” value in series [6] came to 2. Moreover, in series [7], the “stoichiometry N” value is 4. Besides, in “purified protein” (10 mM MgCl2, pH 7.7, 30 °C), the Km is 0.14 (±0.01) mM and the kcat was 5.9 s⁻¹.
